In publication PMC12820099, “CTCF couples long-range loop extrusion and diffusion to mediate a diverse Igκ repertoire” (Nature Communications, 2025):

Target: T1, SMC3 (mouse (endogenous in v-Abl pro-B cells), UniProt Q9CW03 1-1217)
T1 construct: SMC3, mouse, endogenous; precipitated with an SMC3 antibody from the solubilised chromatin fraction; Bait of the IP; it sits in the cohesin complex, so partners may touch other cohesin subunits rather than SMC3 itself; also called cohesin (SMC3 immunoprecipitate); source: endogenous, chromatin fraction of G1 arrested v-Abl pro-B cells (WT and CTCF-Nm)
Test: affinity purification with mass spectrometry; SMC3 antibody IP (Protein A beads, overnight, 100 mM NaCl) from Benzonase-solubilised chromatin fraction of G1 arrested WT and CTCF-Nm v-Abl pro-B cells; label-free qMS, protein intensities normalised to chromatin-bound SMC3; IgG isotype control
Settings: partners not purified

T1 sequence (Q9CW03 whole entry): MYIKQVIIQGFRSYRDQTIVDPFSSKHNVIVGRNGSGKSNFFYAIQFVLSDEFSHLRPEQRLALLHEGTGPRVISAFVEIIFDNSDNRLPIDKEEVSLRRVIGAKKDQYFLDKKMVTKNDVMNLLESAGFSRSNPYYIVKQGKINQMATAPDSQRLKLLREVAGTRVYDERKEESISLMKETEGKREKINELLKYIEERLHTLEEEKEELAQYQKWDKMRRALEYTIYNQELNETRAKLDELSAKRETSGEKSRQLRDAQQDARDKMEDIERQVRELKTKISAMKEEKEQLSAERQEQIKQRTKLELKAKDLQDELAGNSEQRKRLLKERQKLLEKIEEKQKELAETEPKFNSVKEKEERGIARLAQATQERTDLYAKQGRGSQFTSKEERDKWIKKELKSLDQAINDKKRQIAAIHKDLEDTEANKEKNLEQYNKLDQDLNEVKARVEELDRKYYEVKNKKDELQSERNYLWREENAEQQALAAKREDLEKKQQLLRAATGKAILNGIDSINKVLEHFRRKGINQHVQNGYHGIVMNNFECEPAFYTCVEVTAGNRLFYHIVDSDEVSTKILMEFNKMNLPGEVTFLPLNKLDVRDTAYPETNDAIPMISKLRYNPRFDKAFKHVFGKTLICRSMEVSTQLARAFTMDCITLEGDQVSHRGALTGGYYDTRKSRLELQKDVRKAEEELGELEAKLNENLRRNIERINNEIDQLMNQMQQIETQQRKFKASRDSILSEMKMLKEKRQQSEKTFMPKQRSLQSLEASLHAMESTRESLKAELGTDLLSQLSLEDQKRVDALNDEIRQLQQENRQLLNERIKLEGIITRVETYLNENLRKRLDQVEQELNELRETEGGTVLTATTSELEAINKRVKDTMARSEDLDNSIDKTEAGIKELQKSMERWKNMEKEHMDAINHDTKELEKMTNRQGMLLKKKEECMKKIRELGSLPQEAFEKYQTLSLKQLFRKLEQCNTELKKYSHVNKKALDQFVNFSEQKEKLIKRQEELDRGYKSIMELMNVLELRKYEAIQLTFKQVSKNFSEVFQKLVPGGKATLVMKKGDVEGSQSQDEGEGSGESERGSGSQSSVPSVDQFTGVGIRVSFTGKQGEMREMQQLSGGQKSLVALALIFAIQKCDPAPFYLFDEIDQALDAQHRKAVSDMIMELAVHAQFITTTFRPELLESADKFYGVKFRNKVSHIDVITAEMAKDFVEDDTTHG

B1: WAPL (natural protein, mouse (endogenous in v-Abl pro-B cells), UniProt Q65Z40 1-1200, looked up)
chain: MTSRFGKTYSRKGGNGSSKFDEVFSNKRTTLSTKWGETTFMAKLGQKRPNFKPDIQEIPKKPKVEEEDTGDPFGFDSDDESLPVSSKNLAQGKGSSYSESSEAAQLEEVTSVFEANSKCSHVVGEDSFASDRCLLVEDTLIGKEKSISRIPEDNANKSSCTKLLTSDKVENFSEEHEKNSHHFHKNAEDSTKKPNAETAVASEYKADETKETNDTWNSQSGKRTESPSESCPVKGSVRTGLYEWDNDFEDIRSEDCILSLDNESLLEMKDEDLKNRIGGLENLNETFEEDIIQSVLRPSNCRTYCRANKARSSQGASNFDKLMDGTSQSLAKANSESSKDGLNQAKKGSASCGTSFRGTVGRTRDYTVLHPSCLSVCNVTIQDTMERSMDEFTASTPADLGEAGRLRKKADIATSKTTTRFRPSNTKSKKDVKLEFFGFEDHDETGGDEGGSGSSNYKIKYFGFDDLSESEDDDDDDCQVERKKDKKRTKTAPSPSQQPPPESSDNSQDSQSSTNNAENLDFTEDLPGVPESVKKPISKQGDKSKENTRKIFSGPKRSPTKAVYNARHWNHPDSEELPGPPIAKPQRVTVRLSSKEPNQKDDGVFKAPAPPLKVIKTVTIPTQPYQEIVTALKCRKEDKELYTVVQHVKHFNDVVEFGENQEFTDDIEYLLSGLKSTQPLNTRCLSVISLATKCAMPSFRMHLRAHGMVAMVFKTLDDSQHHQNLSLCTAALMYILSRDRLNMDLDRASLDLMIRLLELEQDASSAKLLNEKDMNKIKEKIRRLCETVHNKHLDLENITTGHLAMETLLSLTSKRAGDWFKEELRLLGGLDHIVDKVKECVDHLSRDDEDEEKLVASLWGAERCLRVLESVTVHNPENQSYLIAYKDSQLIISSAKALQHCEDLIQQYNRAENSICVADSNPLPYQNVTNHVGKAVEDCMRAIIGVLLNLTNDNEWGSTKTGEQEGLIGTAMNCVLQVPKYLPQEQRFDIRVLGLGLLINLVEYSARNRHCLVNMQTSCSFDSSFSSGEGDHSLRLAGQVHAVQALVQLFLERERAAQLAESKTDELIKDAPTTQHDKSGEWQETSGEIQWVSTEKTDGAEEKQKKEEEDEELDLNKALQHAGKHMEDCIVASYTALLLGCLCQESPINVTTVREYLPEGDFSIMTEMLKKFLSFMNLTCAVGTTGQKSISRVIEYLEHC
notes: WAPL, mouse, endogenous, untagged in the WT and CTCF-Nm lines used for the IP; source: endogenous, chromatin fraction of G1 arrested v-Abl pro-B cells (WT and CTCF-Nm)
  fold increase of the interaction in CTCF-Nm cells against WT cells: 1.9 fold

B2: CTCF(Y226A/F228A) (natural protein, mouse (endogenous in v-Abl pro-B cells), UniProt Q61164 1-736, looked up)
chain: MEGEAVEAIVEESETFIKGKERKTYQRRREGGQEEDACHLPQNQTDGGEVVQDVNSSVQMVMMEQLDPTLLQMKTEVMEGTVAPEAEAAVDDTQIITLQVVNMEEQPINIGELQLVQVPVPVTVPVATTSVEELQGAYENEVSKEGLAESEPMICHTLPLPEGFQVVKVGANGEVETLEQGELPPQEDSSWQKDPDYQPPAKKTKKTKKSKLRYTEEGKDVDVSVADAEEEQQEGLLSEVNAEKVVGNMKPPKPTKIKKKGVKKTFQCELCSYTCPRRSNLDRHMKSHTDERPHKCHLCGRAFRTVTLLRNHLNTHTGTRPHKCPDCDMAFVTSGELVRHRRYKHTHEKPFKCSMCDYASVEVSKLKRHIRSHTGERPFQCSLCSYASRDTYKLKRHMRTHSGEKPYECYICHARFTQSGTMKMHILQKHTENVAKFHCPHCDTVIARKSDLGVHLRKQHSYIEQGKKCRYCDAVFHERYALIQHQKSHKNEKRFKCDQCDYACRQERHMIMHKRTHTGEKPYACSHCDKTFRQKQLLDMHFKRYHDPNFVPAAFVCSKCGKTFTRRNTMARHADNCAGPDGVEGENGGETKKSKRGRKRKMRSKKEDSSDSEENAEPDLDDNEEEEEPAVEIEPEPEPQPQPPPPPQPVAPAPPPAKKRRGRPPGRTNQPKQNQPTAIIQVEDQNTGAIENIIVEVKKEPDAEPAEGEEEEAQAATTDAPNGDLTPEMILSMMDR
notes: CTCF, mouse, endogenous, with the Y226A/F228A mutation of the N-terminal YDF motif; also called CTCF-Nm; source: endogenous locus, homozygous CRISPR/Cas9 knock-in, chromatin fraction of G1 arrested CTCF-Nm v-Abl pro-B cells
  fold reduction of the interaction against WT CTCF: 3 fold
